{"source": "paper PMC2822728", "about": "(Neuron, 2010)", "proteins": {"B1": {"name": "HA-SynDIG1 (full-length mouse SynDIG1, N-terminal HA tag) (natural protein, UniProt A2ANU3 1-258, looked up)", "chain": "MDGIIEQKSVLVHSKISDAGKRNGLINTRNFMAESRDGLVSVYPAPQYQSHRLVASAAPGSLEGGRSEPVQQLLDPNTLQQSVESHYRPNIILYSDGVLRSWGDGVATDCCETTFIEDRSPTKDSLEYPDGKFIDLSGDDIKIHTLSYDVEEEEELQELESDYSSDTESEDNFLMMPPRDHLGLSVFSMLCCFWPLGIAAFYLSHETNKAVAKGDFHQASTSSRRALFLAVLSITIGTGIYVGVAVALIAYLSKNNHL"}}, "target": "the molecule itself", "assay": "SDS-resistant dimers on SDS-PAGE"}
{"protein": "B1", "values": [{"measurement": "stoichiometry N", "value": 2}]}
